In US12098164 (KOREA UNIVERSITY RESEARCH AND BUSINESS FOUNDATION, dated 2024):

Molecular target: human serum albumin (HSA) (human, UniProt P02768 25-609)
Assay: ELISA, HSA coated at 2 ug/ml, anti-His tag primary antibody and HRP secondary antibody, absorbance at 450 nm

Sequence of human serum albumin (HSA) (P02768 25-609 limits assumed): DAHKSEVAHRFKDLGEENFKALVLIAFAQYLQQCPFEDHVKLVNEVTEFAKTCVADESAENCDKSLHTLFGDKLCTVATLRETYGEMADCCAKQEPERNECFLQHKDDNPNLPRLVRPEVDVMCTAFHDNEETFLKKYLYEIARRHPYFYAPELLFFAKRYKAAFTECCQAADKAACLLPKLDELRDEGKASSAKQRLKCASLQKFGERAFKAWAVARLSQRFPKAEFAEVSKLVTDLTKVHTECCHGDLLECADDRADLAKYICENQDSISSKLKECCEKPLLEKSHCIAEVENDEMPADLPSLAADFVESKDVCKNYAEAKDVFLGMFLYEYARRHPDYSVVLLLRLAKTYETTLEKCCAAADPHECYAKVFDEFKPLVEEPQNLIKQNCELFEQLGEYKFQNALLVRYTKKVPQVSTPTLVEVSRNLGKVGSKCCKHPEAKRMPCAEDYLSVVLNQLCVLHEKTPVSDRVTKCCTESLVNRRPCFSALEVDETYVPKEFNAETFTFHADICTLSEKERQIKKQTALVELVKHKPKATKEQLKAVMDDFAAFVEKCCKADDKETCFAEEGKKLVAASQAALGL

B1: hepatitis B virus capsid protein nanoparticles (HBVC) (other)
chain: HHHHHHDIDPYKEFGASVELLSFLPSDFFPSIRDLLDTASALYREALESPEHCSPHHTALRQAILCWGELMNLATWVGSNLEDPASRELVVSYVNVNMGLKIRQLLWFHISCLTFGRETVLEYLVSFGVWIRTPPAYRPPNAPILSTLPETTVV
notes: also called HBVC (aff-, ABP-)
- binding result: no binding (tested: 0.001 to 1.5 mg/ml tested)
